The supplement of paper PMC6379048

Tests used:
XRN2 = molecular target: T1, XRN2 (UniProt Q9H0D6); assay: Kd (EC50 corrected by depletion factor)
T1 sequence: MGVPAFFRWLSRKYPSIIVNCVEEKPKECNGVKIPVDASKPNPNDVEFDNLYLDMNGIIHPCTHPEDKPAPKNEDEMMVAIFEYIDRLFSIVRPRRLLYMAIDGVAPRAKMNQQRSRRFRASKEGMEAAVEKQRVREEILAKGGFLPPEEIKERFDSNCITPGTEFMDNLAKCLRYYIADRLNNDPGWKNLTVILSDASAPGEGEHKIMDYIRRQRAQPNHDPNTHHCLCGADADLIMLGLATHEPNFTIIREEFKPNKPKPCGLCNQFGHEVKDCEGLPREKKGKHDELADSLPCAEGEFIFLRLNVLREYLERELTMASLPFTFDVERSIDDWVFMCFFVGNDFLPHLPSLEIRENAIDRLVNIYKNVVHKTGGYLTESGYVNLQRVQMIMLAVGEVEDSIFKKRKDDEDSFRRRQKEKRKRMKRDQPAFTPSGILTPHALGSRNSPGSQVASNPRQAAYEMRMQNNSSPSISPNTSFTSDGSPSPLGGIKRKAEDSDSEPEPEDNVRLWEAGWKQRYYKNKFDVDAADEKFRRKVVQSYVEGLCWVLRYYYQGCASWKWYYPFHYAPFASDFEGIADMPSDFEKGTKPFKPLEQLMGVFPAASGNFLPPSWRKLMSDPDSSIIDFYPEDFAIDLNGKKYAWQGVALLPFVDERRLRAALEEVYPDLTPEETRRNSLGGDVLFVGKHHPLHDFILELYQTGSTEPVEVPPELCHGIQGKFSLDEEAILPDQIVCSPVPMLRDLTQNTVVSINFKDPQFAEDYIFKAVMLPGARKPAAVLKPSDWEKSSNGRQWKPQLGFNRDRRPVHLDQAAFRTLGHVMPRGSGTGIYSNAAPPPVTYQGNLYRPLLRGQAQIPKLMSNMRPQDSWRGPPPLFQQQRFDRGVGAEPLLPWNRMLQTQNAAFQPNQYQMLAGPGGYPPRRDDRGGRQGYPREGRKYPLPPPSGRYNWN
Outline: (§1)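 Over three biological replicates and two independent experiments, proteins captured on NHS-Sepharose beads carrying 5′-amino-C6 RNA oligos were quantified by label-free LC-MS/MS and normalised to the control. Capture lasted 30 min at 4°C and followed a 1 h pre-incubation at 4°C of HEK293-FT lysate (2.5 mg protein/well) with the same oligos in free form (0 nM to 30 μM). EC50 was taken from a four-parameter log-logistic fit, and Kd was EC50 corrected by a protein-dependent depletion factor.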

ZCCHC8 = molecular target: T2, ZCCHC8 (UniProt Q6NZY4); assay: Kd (EC50 corrected by depletion factor)
T2 sequence: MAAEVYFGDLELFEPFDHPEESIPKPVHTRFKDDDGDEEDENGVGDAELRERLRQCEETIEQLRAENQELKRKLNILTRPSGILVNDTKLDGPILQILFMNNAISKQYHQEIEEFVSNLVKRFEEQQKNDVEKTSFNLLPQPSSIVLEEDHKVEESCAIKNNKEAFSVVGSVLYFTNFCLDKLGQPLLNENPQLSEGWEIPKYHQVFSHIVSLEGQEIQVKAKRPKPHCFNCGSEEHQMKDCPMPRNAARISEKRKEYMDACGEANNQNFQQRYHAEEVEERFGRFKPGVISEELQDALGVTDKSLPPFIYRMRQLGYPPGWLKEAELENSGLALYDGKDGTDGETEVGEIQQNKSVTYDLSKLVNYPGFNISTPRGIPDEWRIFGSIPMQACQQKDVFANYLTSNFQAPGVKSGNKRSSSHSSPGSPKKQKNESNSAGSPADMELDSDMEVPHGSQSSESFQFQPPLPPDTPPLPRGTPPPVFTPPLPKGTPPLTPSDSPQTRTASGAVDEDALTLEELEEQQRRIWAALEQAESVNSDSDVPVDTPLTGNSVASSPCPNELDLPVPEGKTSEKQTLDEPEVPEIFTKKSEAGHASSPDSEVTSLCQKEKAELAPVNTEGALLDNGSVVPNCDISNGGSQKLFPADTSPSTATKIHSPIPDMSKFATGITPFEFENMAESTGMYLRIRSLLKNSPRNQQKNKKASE
Outline: as §1

CPSF2 = molecular target: T3, CPSF2 (UniProt Q9P2I0); assay: EC50 of free RNA motif oligo competing protein binding to immobilised probe
T3 sequence: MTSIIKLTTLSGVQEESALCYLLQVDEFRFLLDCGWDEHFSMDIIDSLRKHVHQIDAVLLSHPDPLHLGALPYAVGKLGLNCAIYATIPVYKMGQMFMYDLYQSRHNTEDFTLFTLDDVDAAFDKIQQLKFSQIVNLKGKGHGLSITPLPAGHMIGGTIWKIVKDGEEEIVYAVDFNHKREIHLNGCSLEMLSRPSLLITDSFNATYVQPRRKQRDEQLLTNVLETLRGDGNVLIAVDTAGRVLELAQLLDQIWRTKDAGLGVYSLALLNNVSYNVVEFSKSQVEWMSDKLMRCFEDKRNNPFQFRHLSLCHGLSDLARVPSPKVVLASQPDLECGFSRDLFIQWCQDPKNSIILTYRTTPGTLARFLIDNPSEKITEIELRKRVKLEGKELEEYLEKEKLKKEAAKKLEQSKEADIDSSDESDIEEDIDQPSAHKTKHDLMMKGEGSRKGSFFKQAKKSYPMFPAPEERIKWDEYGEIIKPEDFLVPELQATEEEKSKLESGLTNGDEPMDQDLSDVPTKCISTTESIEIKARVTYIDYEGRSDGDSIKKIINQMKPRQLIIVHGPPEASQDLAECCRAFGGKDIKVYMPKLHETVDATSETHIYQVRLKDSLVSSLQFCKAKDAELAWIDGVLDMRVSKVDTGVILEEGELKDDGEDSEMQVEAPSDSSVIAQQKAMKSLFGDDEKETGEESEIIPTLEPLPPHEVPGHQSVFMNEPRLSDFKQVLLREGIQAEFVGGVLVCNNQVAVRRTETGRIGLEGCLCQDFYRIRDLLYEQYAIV
Outline: as §1

LSM4 = molecular target: T4, LSM4 (UniProt Q9Y4Z0); assay: as above
T4 sequence: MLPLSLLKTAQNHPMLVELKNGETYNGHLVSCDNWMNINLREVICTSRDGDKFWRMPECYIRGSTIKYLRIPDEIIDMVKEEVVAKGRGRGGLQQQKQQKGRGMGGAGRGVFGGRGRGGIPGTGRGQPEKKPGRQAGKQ
Outline: as §1

Which Kd (XRN2) does the source give for AAUAAA here?
The Kd was 354 nM.

What about the Kd (ZCCHC8) of the same sequence?
Its Kd is 190 nM.

And the EC50 (CPSF2)?
Its EC50 is 68.3 nM.

What about the EC50 (LSM4) of the same sequence?
The EC50 was 465 nM.

Which results are given for CUGUCCU?
Kd (XRN2): 80.8 nM; Kd (ZCCHC8): 1740 nM

UAUUUAU was tested. Which Kd (XRN2) did it give?
Its Kd is 184 nM.

What about the Kd (ZCCHC8) of the same sequence?
The Kd was 200 nM.

What about the EC50 (CPSF2) of the same sequence?
The EC50 was 1510 nM.

And the EC50 (LSM4)?
Its EC50 is 599 nM.
